Fold increase in on-rate (through stabilization) data for one substance are collected here from article PMC2584968.

The target in the test is three-disulphide variant of core gp120 (HXBc2) (HIV-1 (HXBc2)). The test can be described thus: SPR. For orientation: Surface plasmon resonance follows binding to a sensor surface in real time, without labels.

For the substance CD4-induced antibody 17b, the fold increase in on-rate (through stabilization) came out at 95 fold.
